How the values were obtained:
[1] = test system: HeLa Kyoto; assay: solubility in G1/S (NP-40 vs SDS abundance) (log2 ratio); higher = more soluble; conditions: cell cycle stage: G1/S
[2] = test system: HeLa Kyoto; assay: thermal stability score vs G1/S (z-score of summed log2 fold changes over temperatures); higher = more thermally stable than in G1/S
[3] = test system: HeLa Kyoto; assay: melting temperature (median over replicates), in situ; higher = more thermally stable
[4] = test system: HeLa Kyoto; assay: solubility change mitosis vs G1/S (difference of NP-40 vs SDS log2 ratios) (log2 ratio difference); higher = more soluble in mitosis
[5] = cell cycle stage: early G1 (4.5 h after nocodazole release)
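Throughout, for melting temperature (median over replicates), in situ: HeLa Kyoto cells synchronized by double thymidine or nocodazole block, proteins quantified by TMT10plex mass spectrometry, three independent biological replicates.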
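Throughout, for solubility change mitosis vs G1/S (difference of NP-40 vs SDS log2 ratios): synchronized HeLa Kyoto cells (double thymidine block for G1/S, nocodazole release for mitosis), protein amounts in NP-40 versus SDS lysates quantified by mass spectrometry, three biological replicates.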
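Throughout, for solubility in G1/S (NP-40 vs SDS abundance): HeLa Kyoto cells arrested at G1/S by double thymidine block, proteins quantified by TMT10plex mass spectrometry in mild NP-40 versus SDS extracts, three biological replicates.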
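Throughout, for thermal stability score vs G1/S (z-score of summed log2 fold changes over temperatures): synchronized HeLa Kyoto cells, proteins quantified by TMT10plex mass spectrometry, three biological replicates, mitosis taken 0.5 h after nocodazole release, G1/S directly after double thymidine block.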

LARP4B, sequence (chain, as listed by the source): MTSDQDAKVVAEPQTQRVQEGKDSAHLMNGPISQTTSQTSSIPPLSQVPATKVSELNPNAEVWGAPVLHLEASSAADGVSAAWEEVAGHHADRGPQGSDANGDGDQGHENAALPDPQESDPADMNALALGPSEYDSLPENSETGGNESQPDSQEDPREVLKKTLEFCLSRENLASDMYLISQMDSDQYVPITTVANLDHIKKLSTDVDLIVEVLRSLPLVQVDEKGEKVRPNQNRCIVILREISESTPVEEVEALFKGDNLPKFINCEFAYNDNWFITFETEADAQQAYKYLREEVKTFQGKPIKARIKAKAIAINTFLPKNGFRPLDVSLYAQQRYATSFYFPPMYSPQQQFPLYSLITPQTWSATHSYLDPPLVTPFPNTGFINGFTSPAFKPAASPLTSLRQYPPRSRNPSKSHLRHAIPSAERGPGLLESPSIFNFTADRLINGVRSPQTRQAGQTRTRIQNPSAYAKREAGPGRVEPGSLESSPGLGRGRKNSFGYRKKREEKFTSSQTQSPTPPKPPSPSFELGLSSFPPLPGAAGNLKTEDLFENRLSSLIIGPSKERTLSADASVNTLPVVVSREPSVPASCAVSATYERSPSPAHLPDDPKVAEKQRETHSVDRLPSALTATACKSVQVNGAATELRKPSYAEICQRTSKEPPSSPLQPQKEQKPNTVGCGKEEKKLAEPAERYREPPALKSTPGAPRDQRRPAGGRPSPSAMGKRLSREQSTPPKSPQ

| Substance | solubility in G1/S (log2) [1] | thermal stability score [2, 5] | thermal stability score ([2]; cell cycle stage: mitosis) | melting temperature ([3]; cell cycle stage: G1/S) | melting temperature ([3]; cell cycle stage: mitosis) | solubility change mitosis (log2) [4] |
| --- | --- | --- | --- | --- | --- | --- |
| MAPAMQPAEIQFAQRLASSEKGIRDRAVKKLRQYISVKTQRETGGFSQEELLKIWKGLFYCMWVQDEPLLQEELANTIAQLVHAVNNSAAQHLFIQTFWQTMNREWKGIDRLRLDKYYMLIRLVLRQSFEVLKRNGWEESRIKVFLDVLMKEVLCPESQSPNGVRFHFIDIYLDELSKVGGKELLADQNLKFIDPFCKIAAKTKDHTLVQTIARGVFEAIVDQSPFVPEETMEEQKTKVGDGDLSAEEIPENEVSLRRAVSKKKTALGKNHSRKDGLSDERGRDDCGTFEDTGPLLQFDYKAVADRLLEMTSRKNTPHFNRKRLSKLIKKFQDLSEGSSISQLSFAEDISADEDDQILSQGKHKKKGNKLLEKTNLEKEKGSRVFCVEEEDSESSLQKRRRKKKKKHHLQPENPGPGGAAPSLEQNRGREPEASGLKALKARVAEPGAEATSSTGEESGSEHPPAVPMHNKRKRPRKKSPRAHREMLESAVLPPEDMSQSGPSGSHPQGPRGSPTGGAQLLKRKRKLGVVPVNGSGLSTPAWPPLQQEGPPTGPAEGANSHTTLPQRRRLQKKKAGPGSLELCGLPSQKTASLKKRKKMRVMSNLVEHNGVLESEAGQPQALGSSGTCSSLKKQKLRAESDFVKFDTPFLPKPLFFRRAKSSTATHPPGPAVQLNKTPSSSKKVTFGLNRNMTAEFKKTDKSILVSPTGPSRVAFDPEQKPLHGVLKTPTSSPASSPLVAKKPLTTTPRRRPRAMDFF [RRP1B] | -2.01 | 1.95 | 1.97 | 47.9 °C | 49.5 °C | 1.63 |
| MKRSSVSSGGAGRLSMQELRSQDVNKQGLYTPQTKEKPTFGKLSINKPTSERKVSLFGKRTSGHGSRNSQLGIFSSSEKIKDPRPLNDKAFIQQCIRQLCEFLTENGYAHNVSMKSLQAPSVKDFLKIFTFLYGFLCPSYELPDTKFEEEVPRIFKDLGYPFALSKSSMYTVGAPHTWPHIVAALVWLIDCIKIHTAMKESSPLFDDGQPWGEETEDGIMHNKLFLDYTIKCYESFMSGADSFDEMNAELQSKLKDLFNVDAFKLESLEAKNRALNEQIARLEQEREKEPNRLESLRKLKASLQGDVQKYQAYMSNLESHSAILDQKLNGLNEEIARVELECETIKQENTRLQNIIDNQKYSVADIERINHERNELQQTINKLTKDLEAEQQKLWNEELKYARGKEAIETQLAEYHKLARKLKLIPKGAENSKGYDFEIKFNPEAGANCLVKYRAQVYVPLKELLNETEEEINKALNKKMGLEDTLEQLNAMITESKRSVRTLKEEVQKLDDLYQQKIKEAEEEDEKCASELESLEKHKHLLESTVNQGLSEAMNELDAVQREYQLVVQTTTEERRKVGNNLQRLLEMVATHVGSVEKHLEEQIAKVDREYEECMSEDLSENIKEIRDKYEKKATLIKSSEE [NDC80] | 0.548 | 0.223 | 0.715 | 47.4 °C | 47.7 °C | 0.0863 |
| MALLTAAARLLGTKNASCLVLAARHASASSTNLKDILADLIPKEQARIKTFRQQHGKTVVGQITVDMMYGGMRGMKGLVYETSVLDPDEGIRFRGFSIPECQKLLPKAKGGEEPLPEGLFWLLVTGHIPTEEQVSWLSKEWAKRAALPSHVVTMLDNFPTNLHPMSQLSAAVTALNSESNFARAYAQGISRTKYWELIYEDSMDLIAKLPCVAAKIYRNLYREGSGIGAIDSNLDWSHNFTNMLGYTDHQFTELTRLYLTIHSDHEGGNVSAHTSHLVGSALSDPYLSFAAAMNGLAGPLHGLANQEVLVWLTQLQKEVGKDVSDEKLRDYIWNTLNSGRVVPGYGHAVLRKTDPRYTCQREFALKHLPNDPMFKLVAQLYKIVPNVLLEQGKAKNPWPNVDAHSGVLLQYYGMTEMNYYTVLFGVSRALGVLAQLIWSRALGFPLERPKSMSTEGLMKFVDSKSG [CS] | 0.519 | 1.01 | 0.1 | 52 °C | 51.9 °C | -0.0123 |
| MATATEQWVLVEMVQALYEAPAYHLILEGILILWIIRLLFSKTYKLQERSDLTVKEKEELIEEWQPEPLVPPVPKDHPALNYNIVSGPPSHKTVVNGKECINFASFNFLGLLDNPRVKAAALASLKKYGVGTCGPRGFYGTFDVHLDLEDRLAKFMKTEEAIIYSYGFATIASAIPAYSKRGDIVFVDRAACFAIQKGLQASRSDIKLFKHNDMADLERLLKEQEIEDQKNPRKARVTRRFIVVEGLYMNTGTICPLPELVKLKYKYKARIFLEESLSFGVLGEHGRGVTEHYGINIDDIDLISANMENALASIGGFCCGRSFVIDHQRLSGQGYCFSASLPPLLAAAAIEALNIMEENPGIFAVLKEKCGQIHKALQGISGLKVVGESLSPAFHLQLEESTGSREQDVRLLQEIVDQCMNRSIALTQARYLEKEEKCLPPPSIRVVVTVEQTEEELERAASTIKEVAQAVLL [SPTLC1] | -0.0163 | 0.272 | -0.0699 | 51.5 °C | 52 °C | -0.06 |
| MRLSSLLALLRPALPLILGLSLGCSLSLLRVSWIQGEGEDPCVEAVGERGGPQNPDSRARLDQSDEDFKPRIVPYYRDPNKPYKKVLRTRYIQTELGSRERLLVAVLTSRATLSTLAVAVNRTVAHHFPRLLYFTGQRGARAPAGMQVVSHGDERPAWLMSETLRHLHTHFGADYDWFFIMQDDTYVQAPRLAALAGHLSINQDLYLGRAEEFIGAGEQARYCHGGFGYLLSRSLLLRLRPHLDGCRGDILSARPDEWLGRCLIDSLGVGCVSQHQGQQYRSFELAKNRDPEKEGSSAFLSAFAVHPVSEGTLMYRLHKRFSALELERAYSEIEQLQAQIRNLTVLTPEGEAGLSWPVGLPAPFTPHSRFEVLGWDYFTEQHTFSCADGAPKCPLQGASRADVGDALETALEQLNRRYQPRLRFQKQRLLNGYRRFDPARGMEYTLDLLLECVTQRGHRRALARRVSLLRPLSRVEILPMPYVTEATRVQLVLPLLVAEAAAAPAFLEAFAANVLEPREHALLTLLLVYGPREGGRGAPDPFLGVKAAAAELERRYPGTRLAWLAVRAEAPSQVRLMDVVSKKHPVDTLFFLTTVWTRPGPEVLNRCRMNAISGWQAFFPVHFQEFNPALSPQRSPPGPPGAGPDPPSPPGADPSRGAPIGGRFDRQASAEGCFYNADYLAARARLAGELAGQEEEEALEGLEVMDVFLRFSGLHLFRAVEPGLVQKFSLRDCSPRLSEELYHRCRLSNLEGLGGRAQLAMALFEQEQANST [CHPF2] | -0.00882 | -0.504 | -0.497 | 53.4 °C | 53 °C | -0.00799 |
| MAAVKEPLEFHAKRPWRPEEAVEDPDEEDEDNTSEAENGFSLEEVLRLGGTKQDYLMLATLDENEEVIDGGKKGAIDDLQQGELEAFIQNLNLAKYTKASLVEEDEPAEKENSSKKEVKIPKINNKNTAESQRTSVNKVKNKNRPEPHSDENGSTTPKVKKDKQNIFEFFERQTLLLRPGGKWYDLEYSNEYSLKPQPQDVVSKYKTLAQKLYQHEINLFKSKTNSQKGASSTWMKAIVSSGTLGDRMAAMILLIQDDAVHTLQFVETLVNLVKKKGSKQQCLMALDTFKELLITDLLPDNRKLRIFSQRPFDKLEQLSSGNKDSRDRRLILWYFEHQLKHLVAEFVQVLETLSHDTLVTTKTRALTVAHELLCNKPEEEKALLVQVVNKLGDPQNRIATKASHLLETLLCKHPNMKGVVSGEVERLLFRSNISSKAQYYAICFLNQMALSHEESELANKLITVYFCFFRTCVKKKDVESKMLSALLTGVNRAYPYSQTGDDKVREQIDTLFKVLHIVNFNTSVQALMLLFQVMNSQQTISDRYYTALYRKMLDPGLMTCSKQAMFLNLVYKSLKADIVLRRVKAFVKRLLQVTCQQMPPFICGALYLVSEILKAKPGLRSQLDDHPESDDEENFIDANDDEDMEKFTDADKETEIVKKLETEETVPETDVETKKPEVASWVHFDNLKGGKQLNKYDPFSRNPLFCGAENTSLWELKKLSVHFHPSVALFAKTILQGNYIQYSGDPLQDFTLMRFLDRFVYRNPKPHKGKENTDSVVMQPKRKHFIKDIRHLPVNSKEFLAKEESQIPVDEVFFHRYYKKVAVKEKQKRDADEESIEDVDDEEFEELIDTFEDDNCFSSGKDDMDFAGNVKKRTKGAKDNTLDEDSEGSDDELGNLDDDEVSLGSMDDEEFAEVDEDGGTFMDVLDDESESVPELEVHSKVSTKKSKRKGTDDFDFAGSFQGPRKKKRNLNDSSLFVSAEEFGHLLDENMGSKFDNIGMNAMANKDNASLKQLRWEAERDDWLHNRDAKSIIKKKKHFKKKRIKTTQKTKKQRK [CEBPZ] | -1.9 | 1.59 | 1.76 | 49.8 °C | 50.1 °C | 1.14 |
| MAHAPARCPSARGSGDGEMGKPRNVALITGITGQDGSYLAEFLLEKGYEVHGIVRRSSSFNTGRIEHLYKNPQAHIEGNMKLHYGDLTDSTCLVKIINEVKPTEIYNLGAQSHVKISFDLAEYTADVDGVGTLRLLDAVKTCGLINSVKFYQASTSELYGKVQEIPQKETTPFYPRSPYGAAKLYAYWIVVNFREAYNLFAVNGILFNHESPRRGANFVTRKISRSVAKIYLGQLECFSLGNLDAKRDWGHAKDYVEAMWLMLQNDEPEDFVIATGEVHSVREFVEKSFLHIGKTIVWEGKNENEVGRCKETGKVHVTVDLKYYRPTEVDFLQGDCTKAKQKLNWKPRVAFDELVREMVHADVELMRTNPNA [GMDS] | -0.249 | -0.0264 | -1.35 | 56.4 °C | 57.4 °C | -0.00656 |
| LARP4B | -0.183 | -0.656 | -1.1 | 50.8 °C | 50 °C | 0.533 |
| MRLALLWALGLLGAGSPLPSWPLPNIGGTEEQQAESEKAPREPLEPQVLQDDLPISLKKVLQTSLPEPLRIKLELDGDSHILELLQNRELVPGRPTLVWYQPDGTRVVSEGHTLENCCYQGRVRGYAGSWVSICTCSGLRGLVVLTPERSYTLEQGPGDLQGPPIISRIQDLHLPGHTCALSWRESVHTQKPPEHPLGQRHIRRRRDVVTETKTVELVIVADHSEAQKYRDFQHLLNRTLEVALLLDTFFRPLNVRVALVGLEAWTQRDLVEISPNPAVTLENFLHWRRAHLLPRLPHDSAQLVTGTSFSGPTVGMAIQNSICSPDFSGGVNMDHSTSILGVASSIAHELGHSLGLDHDLPGNSCPCPGPAPAKTCIMEASTDFLPGLNFSNCSRRALEKALLDGMGSCLFERLPSLPPMAAFCGNMFVEPGEQCDCGFLDDCVDPCCDSLTCQLRPGAQCASDGPCCQNCQLRPSGWQCRPTRGDCDLPEFCPGDSSQCPPDVSLGDGEPCAGGQAVCMHGRCASYAQQCQSLWGPGAQPAAPLCLQTANTRGNAFGSCGRNPSGSYVSCTPRDAICGQLQCQTGRTQPLLGSIRDLLWETIDVNGTELNCSWVHLDLGSDVAQPLLTLPGTACGPGLVCIDHRCQRVDLLGAQECRSKCHGHGVCDSNRHCYCEEGWAPPDCTTQLKATSSLTTGLLLSLLVLLVLVMLGASYWYRARLHQRLCQLKGPTCQYRAAQSGPSERPGPPQRALLARGTKQASALSFPAPPSRPLPPDPVSKRLQAELADRPNPPTRPLPADPVVRSPKSQGPAKPPPPRKPLPADPQGRCPSGDLPGPGAGIPPLVVPSRPAPPPPTVSSLYL [ADAM15] | 0.293 | 0.908 | 2.18 | 54.2 °C | 55.4 °C | -0.0652 |
| MAPNIYLVRQRISRLGQRMSGFQINLNPLKEPLGFIKVLEWIASIFAFATCGGFKGQTEIQVNCPPAVTENKTVTATFGYPFRLNEASFQPPPGVNICDVNWKDYVLIGDYSSSAQFYVTFAVFVFLYCIAALLLYVGYTSLYLDSRKLPMIDFVVTLVATFLWLVSTSAWAKALTDIKIATGHNIIDELPPCKKKAVLCYFGSVTSMGSLNVSVIFGFLNMILWGGNAWFVYKETSLHSPSNTSAPHSQGGIPPPTGI [SYPL1] | -0.227 | -3.54 | -3.06 | 56.1 °C | 56.9 °C | 0.0843 |
| DOCK10 | -0.189 | -1.12 | -0.873 | 52.3 °C | 51.8 °C | -0.143 |

From the supplement of paper PMC5998384
